Measurements published in IntAct's records for PubMed 17911252.

B1: N-chimaerin (Homo sapiens), P15882-1 (parent)
chain: MALTLFDTDEYRPPVWKSYLYQLQQEAPHPRRITCTCEVENRPKYYGREFHGMISREAADQLLIVAEGSYLIRESQRQPGTYTLALRFGSQTRNFRLYYDGKHFVGEKRFESIHDLVTDGLITLYIETKAAEYIAKMTINPIYEHVGYTTLNREPAYKKHMPVLKETHDERDSTGQDGVSEKRLTSLVRRATLKENEQIPKYEKIHNFKVHTFRGPHWCEYCANFMWGLIAQGVKCADCGLNVHKQCSKMVPNDCKPDLKHVKKVYSCDLTTLVKAHTTKRPMVVDMCIREIESRGLNSEGLYRVSGFSDLIEDVKMAFDRDGEKADISVNMYEDINIITGALKLYFRDLPIPLITYDAYPKFIESAKIMDPDEQLETLHEALKLLPPAHCETLRYLMAHLKRVTLHEKENLMNAENLGIVFGPTLMRSPELDAMAALNDIRYQRLVVELLIKNEDILF

Variants of: B1
Details: with epha4_mouse Epha4, Q03137
Chain of epha4_mouse Epha4, Q03137 (Q03137 whole entry): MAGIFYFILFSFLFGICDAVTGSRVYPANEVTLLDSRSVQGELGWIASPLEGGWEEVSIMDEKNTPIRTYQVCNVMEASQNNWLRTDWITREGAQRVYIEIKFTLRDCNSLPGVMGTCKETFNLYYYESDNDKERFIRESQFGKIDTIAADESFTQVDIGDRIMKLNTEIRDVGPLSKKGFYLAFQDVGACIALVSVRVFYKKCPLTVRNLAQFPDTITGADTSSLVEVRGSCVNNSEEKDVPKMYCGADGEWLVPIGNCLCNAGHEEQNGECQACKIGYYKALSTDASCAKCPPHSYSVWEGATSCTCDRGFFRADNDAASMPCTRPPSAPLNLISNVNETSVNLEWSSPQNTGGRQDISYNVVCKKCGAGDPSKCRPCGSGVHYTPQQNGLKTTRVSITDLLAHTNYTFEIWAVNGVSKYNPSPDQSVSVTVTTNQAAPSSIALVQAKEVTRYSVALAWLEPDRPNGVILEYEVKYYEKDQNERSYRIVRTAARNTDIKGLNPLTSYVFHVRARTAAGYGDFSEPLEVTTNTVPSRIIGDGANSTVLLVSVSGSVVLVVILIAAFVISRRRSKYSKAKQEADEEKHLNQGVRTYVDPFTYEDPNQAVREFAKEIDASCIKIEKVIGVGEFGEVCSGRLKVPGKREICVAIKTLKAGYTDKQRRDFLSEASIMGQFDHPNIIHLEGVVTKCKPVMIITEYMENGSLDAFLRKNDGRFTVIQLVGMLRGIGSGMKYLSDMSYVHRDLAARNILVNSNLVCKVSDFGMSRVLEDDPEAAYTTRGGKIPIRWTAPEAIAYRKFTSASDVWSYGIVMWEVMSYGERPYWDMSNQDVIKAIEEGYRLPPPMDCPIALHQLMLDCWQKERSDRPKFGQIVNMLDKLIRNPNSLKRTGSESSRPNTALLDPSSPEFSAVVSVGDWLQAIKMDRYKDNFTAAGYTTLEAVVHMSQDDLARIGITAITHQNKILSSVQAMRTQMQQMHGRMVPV

| Variant | effect of a mutation on the interaction |
| --- | --- |
| R56L | decreasing interaction strength |
